Results from publication PMC5400778.

Target: His-tagged BG505 SOSIP.664 trimer with the N185h glycan site removed (HIV (isolate BG505)) (UniProt Q2N0S6)
Test: SPR; Biacore 3000, 25°C; His-tagged BG505 SOSIP trimers immobilised on the chip by His-tag capture; PGT145 Fab as analyte; kinetic analysis

B1: PGT145 Fab (Fab, V domains shown)
VH: QVQLVQSGAEVKKPGSSVKVSCKASGNSFSNHDVHWVRQATGQGLEWMGWMSHEGDKTGLAQKFQGRVTITRDSGASTVYMELRGLTADDTAIYYCLTGSKHRLRDYFLYNEYGPNYEEWGDYLATLDVWGHGTAVTVSS
VL: EVVITQSPLFLPVTPGEAASLSCKCSHSLQHSTGANYLAWYLQRPGQTPRLLIHLATHRASGVPDRFSGSGSGTDFTLKISRVESDDVGTYYCMQGLHSPWTFGQGTKVEIK
stoichiometry N: 0.96
